Values quoted from earlier work in patent US11795217B2, “Interleukin-1 inhibition for combination treatment of pancreatic cancer cachexia” (Cedars-Sinai Medical Center, priority 2018, dated 2023).

Assays:
[1] = test system: patients with refractory cancers
[2] = test system: patients with metastatic colorectal cancer
[3] = test system: patients with advanced cancer and cancer-associated symptoms; conditions: in vivo, 7.5 mg/kg

Substance: bermekimab
- patients with a positive DXA outcome as defined for the responder endpoint ([1]; 61 patients): 62 % of evaluable patients
- minimum effective dose ([1]; every 2 weeks, dose escalation study): 3.75 mg/kg
- dose limiting toxicity ([1]; human, in vivo): no dose limiting toxicity
- grade ¾ toxicities: fatigue ([1]; human, in vivo): 13%
- grade ¾ toxicities: nausea ([1]; human, in vivo): 13%
- grade ¾ toxicities: proteinuria ([1]; human, in vivo): 21%
- average LBM (lean body mass) change ([1]; patients with positive DXA outcome): 2.1 ± 2.8 kg
- response to treatment (primary outcome) ([2]; 309 patients, randomized 2:1, placebo 19%, p=0.0045): 33%
- relative reduction in the number of SAEs ([2]; human, in vivo): 26%
- drug-related toxicities [3]: no definite drug-related toxicities
